This experiment concerns the target MART-1(27-35) presented by HLA-A2 on A375 melanoma cells (human) (UniProt Q16655). In words: cell-based or functional assay.

“DMF5 β:CD3z:MyD88 (from UniProt P20963 52-164; Q99836 1-155) (TCR)” registered a TNFa, IFNg, or IL-2 in supernatant by ELISA, T cells with peptide-pulsed A375 cells (× less antigen) of 10.

The values are drawn from patent US20250195573A1.
